How the values were obtained:
[1] = target: T1, HLA-A0201 molecule on T2 cells (TAP-, HLA-A0201+) (human); test: T2 thermostabilization assay, flow cytometry of surface HLA-A2 (BB7.2), fluorescence index; native peptide as reference
T1 construct: MHC class I molecule without a defined peptide; also called HLA-A2.1
Description: (§1) T2 cells (TAP⁻, HLA-A0201⁺) were incubated overnight at 27° C. at a concentration of 1×10⁶ cells/ml in FCS-free RPMI medium supplemented with 5 μg/ml human β₂m (Sigma, St Louis, Mo.) in the absence (negative control) or presence of either a positive reference tyrosinase peptide or test peptides at various final concentrations (50, 10, 1, and 0.1 micrograms (μg)/ml). Following a 4-hour incubation with 5 μg/ml brefeldin A (Sigma), T2 cells were labeled for 30 minutes at 4° C. with a saturating concentration of anti-HLA-A2.1 (BB7.2) mAb, then washed twice. Cells were then incubated for 30 minutes, 4° C. with a saturating concentration of FITC-conjugated goat IgG F(ab′)2 anti-mouse Ig (Caltag, San Francisco, Calif.), washed twice, fixed in PBS/1% paraformaldehyde and analyzed using a FACS Calibur® cytofluorometer (Becton Dickinson, Immunocytometry Systems, San Jose, Calif.).
(§2) Following initial evaluation of peptide binding at time 0, cells were washed in RPMI complete medium to remove free peptides and incubated in the continuous presence of 0.5 μg/ml brefeldin-A for 2, 4, 6 or 8 hours.

[2] = target: T1, HLA-A0201 molecule on T2 cells (TAP-, …); test: T2 thermostabilization assay, flow cytometry of surface HLA-A2 (BB7.2), fluorescence index
Description: as §1, §2

[3] = target: T2, HLA-A0301 molecule on Raji HLA-A0301 cells (human); test: thermostabilization assay on Raji HLA-A0301 cells, fluorescence index
T2 construct: It says only 'thermostabilization assays using; Raji HLA-A0301 cells'

[4] = target: T1, HLA-A0201 molecule on T2 cells (TAP-, …); test: T2 stabilization assay of Example 1, as told in the description
Description: as §1, §2

Row | binding result [3] | Binder | further results
1 | – | SLGEQQYSV [WT1 B (native)] | binding result [1]: binds
2 | – | YLGEQQYSV [WT1 B1 (analogue)] | binding result [2]: binds
3 | – | NLGATLKGV [WT1 D (native)] | binding result [1]: binds
4 | – | YLGATLKGV [WT1 D1 (analogue)] | binding result [2]: binds
5 | binds | KLSHLQMHSR [A3 WT1 D (native)] | –
6 | binds | KLYHLQMHSR [A3 WT1 D1 (analogue)] | –
7 | binds | KLSHLQMHSK [A3 WT1 D2 (analogue)] | –
8 | binds | KLYHLQMHSK [A3 WT1 D3 (analogue)] | –
9 | – | ALLPAVPSL [WT1 C (native)] | binding result [1]: binds
10 | – | YLLPAVPSL [WT1 C1 (analogue)] | binding result [4]: binds
11 | binds | NMHQRNMTK [A3 WT1 A (native)] | –
12 | binds | NMHQRVMTK [A3 WT1 A2 (analogue)] | –
13 | binds | NMYQRNMTK [A3 WT1 A1 (analogue)] | –
14 | binds | NMYQRVMTK [A3 WT1 A3 (analogue)] | –
15 | binds | FMCAYPGCNK [A3 WT1 C (native)] | –
16 | binds | FMCAYPFCNK [A3 WT1 C2 (analogue)] | –
17 | binds | FMYAYPGCNK [A3 WT1 C1 (analogue)] | –
18 | binds | FMYAYPFCNK [A3 WT1 C3 (analogue)] | –
19 | – | RMFPNAPYL (also called WT1A (126-134)) [WT1 A (native)] | binding result [1]: binds
20 | – | YMFPNAPYL [WT1 A1 (analogue)] | binding result [2]: binds
21 | binds | QMNLGATLK [A3 WT1 B (native)] | –
22 | binds | QMYLGVTLK [A3 WT1 B3 (analogue)] | –
23 | binds | QMNLGVTLK [A3 WT1 B2 (analogue)] | –
24 | binds | QMYLGATLK [A3 WT1 B1 (analogue)] | –
